Source: the Human Domainome abundance scans (Beltran et al. 2025)
± gives the uncertainty stated by the source.

Experiment: abundance fitness (aPCA) (normalised: wild type 0, dead -1); higher = more abundant; growth selection in yeast, the domain comes from the species named
Conditions: Homo sapiens

Row | Substance | abundance fitness
1 | NEDD4-like E3 ubiquitin-protein ligase WWP2 H465K, O00308 | -0.216 ± 0.064
2 | NEDD4-like E3 ubiquitin-protein ligase WWP2 H465L, O00308 | -0.315 ± 0.045
3 | NEDD4-like E3 ubiquitin-protein ligase WWP2 H465M, O00308 | -0.357 ± 0.072
4 | NEDD4-like E3 ubiquitin-protein ligase WWP2 H465N, O00308 | -0.208 ± 0.086
5 | NEDD4-like E3 ubiquitin-protein ligase WWP2 H465P, O00308 | -0.556 ± 0.088
6 | NEDD4-like E3 ubiquitin-protein ligase WWP2 H465Q, O00308 | -0.332 ± 0.042
7 | NEDD4-like E3 ubiquitin-protein ligase WWP2 H465R, O00308 | -0.278 ± 0.036
8 | NEDD4-like E3 ubiquitin-protein ligase WWP2 H465S, O00308 | -0.247 ± 0.034
9 | NEDD4-like E3 ubiquitin-protein ligase WWP2 H465T, O00308 | -0.292 ± 0.061
10 | NEDD4-like E3 ubiquitin-protein ligase WWP2 H465V, O00308 | -0.357 ± 0.05
11 | NEDD4-like E3 ubiquitin-protein ligase WWP2 H465W, O00308 | -0.422 ± 0.042
12 | NEDD4-like E3 ubiquitin-protein ligase WWP2 H465Y, O00308 | -0.386 ± 0.064
13 | NEDD4-like E3 ubiquitin-protein ligase WWP2 I441A, O00308 | -0.113 ± 0.053
14 | NEDD4-like E3 ubiquitin-protein ligase WWP2 I441C, O00308 | -0.166 ± 0.078
15 | NEDD4-like E3 ubiquitin-protein ligase WWP2 I441D, O00308 | -0.419 ± 0.14
16 | NEDD4-like E3 ubiquitin-protein ligase WWP2 I441F, O00308 | -0.13 ± 0.059
17 | NEDD4-like E3 ubiquitin-protein ligase WWP2 I441H, O00308 | -0.204 ± 0.065
18 | NEDD4-like E3 ubiquitin-protein ligase WWP2 I441K, O00308 | 0.052 ± 0.04
19 | NEDD4-like E3 ubiquitin-protein ligase WWP2 I441L, O00308 | -0.198 ± 0.054
20 | NEDD4-like E3 ubiquitin-protein ligase WWP2 I441N, O00308 | 0.137 ± 0.071
21 | NEDD4-like E3 ubiquitin-protein ligase WWP2 I441P, O00308 | -0.503 ± 0.083
22 | NEDD4-like E3 ubiquitin-protein ligase WWP2 I441Q, O00308 | -0.035 ± 0.068

Row | Substance | abundance fitness
23 | NEDD4-like E3 ubiquitin-protein ligase WWP2 I441S, O00308 | -0.123 ± 0.044
24 | NEDD4-like E3 ubiquitin-protein ligase WWP2 I441T, O00308 | 0.009 ± 0.04
25 | NEDD4-like E3 ubiquitin-protein ligase WWP2 I441V, O00308 | -0.14 ± 0.048
26 | NEDD4-like E3 ubiquitin-protein ligase WWP2 I441W, O00308 | -0.297 ± 0.067
27 | NEDD4-like E3 ubiquitin-protein ligase WWP2 I441Y, O00308 | -0.33 ± 0.11
28 | NEDD4-like E3 ubiquitin-protein ligase WWP2 K453A, O00308 | 0.037 ± 0.046
29 | NEDD4-like E3 ubiquitin-protein ligase WWP2 K453C, O00308 | -0.226 ± 0.079
30 | NEDD4-like E3 ubiquitin-protein ligase WWP2 K453D, O00308 | -0.029 ± 0.067
31 | NEDD4-like E3 ubiquitin-protein ligase WWP2 K453E, O00308 | -0.23 ± 0.058
32 | NEDD4-like E3 ubiquitin-protein ligase WWP2 K453F, O00308 | -0.006 ± 0.075
33 | NEDD4-like E3 ubiquitin-protein ligase WWP2 K453G, O00308 | -0.328 ± 0.052
34 | NEDD4-like E3 ubiquitin-protein ligase WWP2 K453H, O00308 | -0.137 ± 0.047
35 | NEDD4-like E3 ubiquitin-protein ligase WWP2 K453I, O00308 | -0.167 ± 0.053
36 | NEDD4-like E3 ubiquitin-protein ligase WWP2 K453L, O00308 | 0.034 ± 0.038
37 | NEDD4-like E3 ubiquitin-protein ligase WWP2 K453M, O00308 | -0.006 ± 0.05
38 | NEDD4-like E3 ubiquitin-protein ligase WWP2 K453N, O00308 | -0.316 ± 0.063
39 | NEDD4-like E3 ubiquitin-protein ligase WWP2 K453P, O00308 | -1.01 ± 0.12
40 | NEDD4-like E3 ubiquitin-protein ligase WWP2 K453R, O00308 | -0.043 ± 0.045
41 | NEDD4-like E3 ubiquitin-protein ligase WWP2 K453S, O00308 | -0.183 ± 0.042
42 | NEDD4-like E3 ubiquitin-protein ligase WWP2 K453T, O00308 | -0.128 ± 0.056
43 | NEDD4-like E3 ubiquitin-protein ligase WWP2 K453V, O00308 | -0.063 ± 0.05
44 | NEDD4-like E3 ubiquitin-protein ligase WWP2 K453W, O00308 | -0.013 ± 0.059

Row | Substance | abundance fitness
45 | NEDD4-like E3 ubiquitin-protein ligase WWP2 K453Y, O00308 | -0.153 ± 0.042
46 | NEDD4-like E3 ubiquitin-protein ligase WWP2 K473A, O00308 | -0.111 ± 0.045
47 | NEDD4-like E3 ubiquitin-protein ligase WWP2 K473C, O00308 | -0.003 ± 0.066
48 | NEDD4-like E3 ubiquitin-protein ligase WWP2 K473E, O00308 | -0.059 ± 0.035
49 | NEDD4-like E3 ubiquitin-protein ligase WWP2 K473F, O00308 | 0.102 ± 0.082
50 | NEDD4-like E3 ubiquitin-protein ligase WWP2 K473H, O00308 | -0.1 ± 0.055
51 | NEDD4-like E3 ubiquitin-protein ligase WWP2 K473I, O00308 | 0.028 ± 0.07
52 | NEDD4-like E3 ubiquitin-protein ligase WWP2 K473L, O00308 | -0.165 ± 0.058
53 | NEDD4-like E3 ubiquitin-protein ligase WWP2 K473M, O00308 | 0.093 ± 0.08
54 | NEDD4-like E3 ubiquitin-protein ligase WWP2 K473N, O00308 | -0.402 ± 0.095
55 | NEDD4-like E3 ubiquitin-protein ligase WWP2 K473P, O00308 | -1.11 ± 0.12
56 | NEDD4-like E3 ubiquitin-protein ligase WWP2 K473Q, O00308 | -0.091 ± 0.082
57 | NEDD4-like E3 ubiquitin-protein ligase WWP2 K473R, O00308 | -0.081 ± 0.055
58 | NEDD4-like E3 ubiquitin-protein ligase WWP2 K473S, O00308 | -0.128 ± 0.055
59 | NEDD4-like E3 ubiquitin-protein ligase WWP2 K473T, O00308 | -0.097 ± 0.066
60 | NEDD4-like E3 ubiquitin-protein ligase WWP2 K473V, O00308 | 0.112 ± 0.041
61 | NEDD4-like E3 ubiquitin-protein ligase WWP2 K473W, O00308 | -0.026 ± 0.075
62 | NEDD4-like E3 ubiquitin-protein ligase WWP2 K473Y, O00308 | 0.087 ± 0.071
63 | NEDD4-like E3 ubiquitin-protein ligase WWP2 K484A, O00308 | -0.073 ± 0.058
64 | NEDD4-like E3 ubiquitin-protein ligase WWP2 K484C, O00308 | -0.033 ± 0.055
65 | NEDD4-like E3 ubiquitin-protein ligase WWP2 K484D, O00308 | -0.028 ± 0.073
66 | NEDD4-like E3 ubiquitin-protein ligase WWP2 K484E, O00308 | -0.037 ± 0.061

Row | Substance | abundance fitness
67 | NEDD4-like E3 ubiquitin-protein ligase WWP2 K484F, O00308 | -0.24 ± 0.073
68 | NEDD4-like E3 ubiquitin-protein ligase WWP2 K484H, O00308 | -0.192 ± 0.081
69 | NEDD4-like E3 ubiquitin-protein ligase WWP2 K484I, O00308 | -0.157 ± 0.064
70 | NEDD4-like E3 ubiquitin-protein ligase WWP2 K484L, O00308 | -0.064 ± 0.03
71 | NEDD4-like E3 ubiquitin-protein ligase WWP2 K484M, O00308 | 0.044 ± 0.058
72 | NEDD4-like E3 ubiquitin-protein ligase WWP2 K484N, O00308 | -0.056 ± 0.053
73 | NEDD4-like E3 ubiquitin-protein ligase WWP2 K484P, O00308 | -0.05 ± 0.034
74 | NEDD4-like E3 ubiquitin-protein ligase WWP2 K484Q, O00308 | -0.025 ± 0.068
75 | NEDD4-like E3 ubiquitin-protein ligase WWP2 K484R, O00308 | -0.062 ± 0.038
76 | NEDD4-like E3 ubiquitin-protein ligase WWP2 K484S, O00308 | -0.007 ± 0.037
77 | NEDD4-like E3 ubiquitin-protein ligase WWP2 K484T, O00308 | -0.025 ± 0.039
78 | NEDD4-like E3 ubiquitin-protein ligase WWP2 K484V, O00308 | -0.143 ± 0.046
79 | NEDD4-like E3 ubiquitin-protein ligase WWP2 K484W, O00308 | -0.101 ± 0.052
80 | NEDD4-like E3 ubiquitin-protein ligase WWP2 K484Y, O00308 | -0.071 ± 0.029
81 | NEDD4-like E3 ubiquitin-protein ligase WWP2 L446A, O00308 | -0.4 ± 0.037
82 | NEDD4-like E3 ubiquitin-protein ligase WWP2 L446C, O00308 | -0.065 ± 0.054
83 | NEDD4-like E3 ubiquitin-protein ligase WWP2 L446D, O00308 | -0.556 ± 0.048
84 | NEDD4-like E3 ubiquitin-protein ligase WWP2 L446E, O00308 | -0.576 ± 0.051
85 | NEDD4-like E3 ubiquitin-protein ligase WWP2 L446F, O00308 | -0.011 ± 0.07
86 | NEDD4-like E3 ubiquitin-protein ligase WWP2 L446H, O00308 | -0.641 ± 0.12
87 | NEDD4-like E3 ubiquitin-protein ligase WWP2 L446I, O00308 | -0.214 ± 0.081
88 | NEDD4-like E3 ubiquitin-protein ligase WWP2 L446K, O00308 | -0.688 ± 0.094
